Source: patent publication CN111018977A (DONGGUAN PENGZHI BIOTECHNOLOGY CO LTD, dated 2020)

B1: WT 1-1 (antibody, V domains shown)
VH: QVQLQQSGTELAKPGASVKFSCKASDYTFSTYWMYWIKQRPGQGLEWIGYINPSTGHTEYNQKFKDKATLTADKSSSTAYMQLNSLTSEDSAVYYCARRYYGPFAMDYWGQGTSVTVSS
VL: EIFLTQSPAIMSASPGEKVTMTCSASSSVSYAHWYQQKSGTSPKRWIYDSSKIASGIPVRFSGSGSGTSYSLTISSMEAEDAATYYCQNWSTNPYTFGGGTKLEIKR
B2: WT 1-4 (antibody, V domains shown)
VH: QVQLQQSGTELAKPGASVKFSCKASDYTFSTYWMYWIKQRPGQGLEWIGYINPSSGHTEYNQRFKDKATLTADKSSSTAYMQLNSLTSEDSAVYYCARKYYGPFAMDYWGQGTSVTVSS
VL: EIFLTQSPAIMSASPGEKVTMTCSASTTVSYAHWYQQKSGTSPKRWLYDSSKIASGIPVRFSGSGSGTSYSLTISSMEAEDAATYYCQNWSTNPYTFGGGTKLEIKR
B3: WT 1-7 (antibody, V domains shown)
VH: QVQLQQSGTELAKPGASVKFSCKASDYTFTTYWMYWIKQRPGQGLEWIGYLNPSTGHTEYNQKFKDKATLTADKSSSTAYMQLNSLTSEDSAVYYCARRYYGPFAMDYWGQGTSVTVSS
VL: EIFLTQSPAIMSASPGEKVTMTCSASTSVSYAHWYQQKSGTSPKRWIYDSSKLASGIPVRFSGSGSGTSYSLTISSMEAEDAATYYCQNWSTNPYTFGGGTKLEIKR

Each binder was assayed against T1, CTNI质控品重组抗原 (人心肌肌钙蛋白I, cTnI) (human, UniProt P19429 1-210, limits assumed) (assay: AMC sensor (biolayer interferometry), antibody immobilised at 10 ug/ml, cTnI QC recombinant protein in serial dilution in PBST).
T1 construct: also called CTNI质控品重组蛋白
T1 sequence (P19429 whole entry): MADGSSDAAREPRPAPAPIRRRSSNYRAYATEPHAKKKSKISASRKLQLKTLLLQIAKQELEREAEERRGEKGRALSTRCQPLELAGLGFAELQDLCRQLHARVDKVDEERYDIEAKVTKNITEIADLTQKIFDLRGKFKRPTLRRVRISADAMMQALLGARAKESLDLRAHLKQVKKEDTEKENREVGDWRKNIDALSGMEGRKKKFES

B1 and B2 are within 1.5-fold of each other in Kd: 1.43 nM for the first, 1.04 nM for the second.

B3 showed a Kd of 0.728 nM.

B1 and B2 are within 1.5-fold of each other in koff: 5.51e-05 s⁻¹ for the first, 3.9e-05 s⁻¹ for the second.

Work on B3 yielded a koff of 0.000132 s⁻¹.

B1 and B2 are within 1.5-fold of each other in kon: 38500 M⁻¹ s⁻¹ for the first, 37500 M⁻¹ s⁻¹ for the second.

B3 was tested, and the kon was 182000 M⁻¹ s⁻¹.
